What was measured:
Test in all cases: cell-based or functional assay
[1] = molecular target: Fas expressed endogenously on mouse primary hepatocytes (mouse), P25446
[2] = molecular target: T1, Fas on mouse W4 cells (mouse WR19L cell transformants that overexpress Fas) (UniProt P25446 22-327, limits assumed)
T1 sequence (looked up): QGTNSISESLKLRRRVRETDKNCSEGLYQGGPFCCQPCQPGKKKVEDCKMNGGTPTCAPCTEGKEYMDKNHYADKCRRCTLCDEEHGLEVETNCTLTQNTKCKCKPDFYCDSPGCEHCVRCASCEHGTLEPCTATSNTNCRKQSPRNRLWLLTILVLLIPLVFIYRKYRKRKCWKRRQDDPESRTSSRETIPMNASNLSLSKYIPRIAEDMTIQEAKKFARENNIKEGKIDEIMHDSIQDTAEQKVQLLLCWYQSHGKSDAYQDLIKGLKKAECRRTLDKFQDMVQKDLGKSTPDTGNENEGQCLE

[3] = molecular target: T2, Fas expressed endogenously on human Jurkat cells (human, UniProt P25445 26-335)
T2 sequence (looked up): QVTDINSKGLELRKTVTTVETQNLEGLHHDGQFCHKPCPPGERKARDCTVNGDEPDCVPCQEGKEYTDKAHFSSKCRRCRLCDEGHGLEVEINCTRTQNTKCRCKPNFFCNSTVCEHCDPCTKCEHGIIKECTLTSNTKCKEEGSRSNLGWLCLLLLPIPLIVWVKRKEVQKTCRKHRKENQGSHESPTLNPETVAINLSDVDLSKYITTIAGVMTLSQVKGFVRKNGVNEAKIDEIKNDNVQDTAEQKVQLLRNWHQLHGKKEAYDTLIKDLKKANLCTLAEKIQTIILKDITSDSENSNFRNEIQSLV

B1: human soluble Fas ligand, P48023 130-281 (ligand)
chain: QIGHPSPPPEKKELRKVAHLTGKSNSRSMPLEWEDTYGIVLLSGVKYKKGGLVINETGLYFVYSKVYFRGQSCNNLPLSHKVYMRNSKYPQDLVMMEGKMMSYCTTGQMWARSSYLGAVFNLTSADHLYVNVSELSLVNFEESQTFFGLYKL
With B1 the concentration of soluble FasL that blocks half of the cytotoxic activity of membrane-bound FasL (D4 mutant) on mouse hepatocytes at E/T 2.0, GOT release [1] was 0.4 µg/mL.

B2: D4 deletion mutant of human FasL (amino acids 8-69 and 111-133 deleted) (ligand)
chain: MQQPFNYPLKKRGNHSTGLCLLVMFFMVLVALVGLGLGMFQLFHLQKEPSPPPEKKELRKVAHLTGKSNSRSMPLEWEDTYGIVLLSGVKYKKGGLVINETGLYFVYSKVYFRGQSCNNLPLSHKVYMRNSKYPQDLVMMEGKMMSYCTTGQMWARSSYLGAVFNLTSADHLYVNVSELSLVNFEESQTFFGLYKL
In the case of B2, the “specific killing of W4 cells at an E/T ratio of 5.0, 51Cr-release” value [2] is reported as roughly 50% and the “specific killing of Jurkat cells at an E/T ratio of 3.0, 51Cr-release” value [3] is reported as no less than 20%.
